B1: hAb003LH2L1 (antibody, human IgG1, V domains shown)
VH: EVQLVQSGAEVKKPGSSVKVSCKASGYRFTDYEMHWVRQAPGQGLEWMGTIDPETGNTAYTQKFMDRVTITADKSTSTAYMELSSLRSEDTAVYYCTRGYSFTYWGQGTLVTVSS
VL: DIVMTQTPLSLPVTPGEPASISCRSSQNIVHSNGNTYLQWYLQKPGQSPQLLIFKVSNRFSGVPDRFSGSGSGTDFTLKISRVEAEDVGVYYCFQGSHVPFTFGQGTKLEIK
B2: hAb003LH2L1a (antibody, human IgG1, V domains shown)
VH: EVQLVQSGAEVKKPGSSVKVSCKASGYRFTDYEMHWVRQAPGQGLEWMGTIDPETGNTAYTQKFMDRVTITADKSTSTAYMELSSLRSEDTAVYYCTRGYSFTYWGQGTLVTVSS
VL: DIVMTQTPLSLPVTPGEPASISCRSSQNIVHSDGNTYLQWYLQKPGQSPQLLIFKVSNRFSGVPDRFSGSGSGTDFTLKISRVEAEDVGVYYCFQGSHVPFTFGQGTKLEIK
B3: hAb003LH3L1 (antibody, human IgG1, V domains shown)
VH: EVQLVQSGAEVKKPGSSVKVSCKASGYRFTDYEMHWVRQAPGQGLEWMGTIDPETGNTAYTQKFMDRVTLTADKSTSTAYMELSSLRSEDTAVYYCTRGYSFTYWGQGTLVTVSS
VL: DIVMTQTPLSLPVTPGEPASISCRSSQNIVHSNGNTYLQWYLQKPGQSPQLLIFKVSNRFSGVPDRFSGSGSGTDFTLKISRVEAEDVGVYYCFQGSHVPFTFGQGTKLEIK
B4: hAb003LH3L1a (antibody, human IgG1, V domains shown)
VH: EVQLVQSGAEVKKPGSSVKVSCKASGYRFTDYEMHWVRQAPGQGLEWMGTIDPETGNTAYTQKFMDRVTLTADKSTSTAYMELSSLRSEDTAVYYCTRGYSFTYWGQGTLVTVSS
VL: DIVMTQTPLSLPVTPGEPASISCRSSQNIVHSDGNTYLQWYLQKPGQSPQLLIFKVSNRFSGVPDRFSGSGSGTDFTLKISRVEAEDVGVYYCFQGSHVPFTFGQGTKLEIK
B5: hAb003LH3L1b (antibody, human IgG1, V domains shown)
VH: EVQLVQSGAEVKKPGSSVKVSCKASGYRFTDYEMHWVRQAPGQGLEWMGTIDPETGNTAYTQKFMDRVTLTADKSTSTAYMELSSLRSEDTAVYYCTRGYSFTYWGQGTLVTVSS
VL: DIVMTQTPLSLPVTPGEPASISCRSSQNIVHSNRNTYLQWYLQKPGQSPQLLIFKVSNRFSGVPDRFSGSGSGTDFTLKISRVEAEDVGVYYCFQGSHVPFTFGQGTKLEIK
B6: hAb005LH1L1 (antibody, human IgG1, V domains shown)
VH: EVQLVQSGAEVKKPGASVKVSCKASGYTFTDYEMHWVRQAPGQGLEWMGAIDPETGNTAYIQKFKGRVTMTTDKSTSTAYMELRSLRSDDTAVYYCTRFYSYSHWGQGTTVTVSS
VL: DIVMTQTPLSLPVTPGEPASISCRSSQSLVHSNGNTYLHWYLQKPGQSPQLLIYKVSNRFSGVPDRFSGSGSGTDFTLKISRVEAEDVGVYYCSQNTHVPPTFGGGTKVEIK
B7: hAb005LH1L1a (antibody, human IgG1, V domains shown)
VH: EVQLVQSGAEVKKPGASVKVSCKASGYTFTDYEMHWVRQAPGQGLEWMGAIDPETGNTAYIQKFKGRVTMTTDKSTSTAYMELRSLRSDDTAVYYCTRFYSYSHWGQGTTVTVSS
VL: DIVMTQTPLSLPVTPGEPASISCRSSQSLVHSDGNTYLHWYLQKPGQSPQLLIYKVSNRFSGVPDRFSGSGSGTDFTLKISRVEAEDVGVYYCSQNTHVPPTFGGGTKVEIK
B8: hAb005LH2L1 (antibody, human IgG1, V domains shown)
VH: EVQLVQSGAEVKKPGASVKVSCKASGYTFTDYEMHWVRQAPGQGLEWMGAIDPETGNTAYIQKFKGRVTLTTDKSTSTAYMELRSLRSDDTAVYYCTRFYSYSHWGQGTTVTVSS
VL: DIVMTQTPLSLPVTPGEPASISCRSSQSLVHSNGNTYLHWYLQKPGQSPQLLIYKVSNRFSGVPDRFSGSGSGTDFTLKISRVEAEDVGVYYCSQNTHVPPTFGGGTKVEIK
B9: hAb005LH2L1a (antibody, human IgG1, V domains shown)
VH: EVQLVQSGAEVKKPGASVKVSCKASGYTFTDYEMHWVRQAPGQGLEWMGAIDPETGNTAYIQKFKGRVTLTTDKSTSTAYMELRSLRSDDTAVYYCTRFYSYSHWGQGTTVTVSS
VL: DIVMTQTPLSLPVTPGEPASISCRSSQSLVHSDGNTYLHWYLQKPGQSPQLLIYKVSNRFSGVPDRFSGSGSGTDFTLKISRVEAEDVGVYYCSQNTHVPPTFGGGTKVEIK
B10: hAb005LH3L1 (antibody, human IgG1, V domains shown)
VH: EVQLVQSGAEVKKPGASVKVSCKASGYTFTDYEMHWVRQAPGQGLEWIGAIDPETGNTAYIQKFKGRATLTTDKSTSTAYMELRSLRSDDTAVYYCTRFYSYSHWGQGTTVTVSS
VL: DIVMTQTPLSLPVTPGEPASISCRSSQSLVHSNGNTYLHWYLQKPGQSPQLLIYKVSNRFSGVPDRFSGSGSGTDFTLKISRVEAEDVGVYYCSQNTHVPPTFGGGTKVEIK

How the values were obtained:
[1] = target: monkey GPC3 on HEK293T-monkey GPC3 cells (monkey); test: FACS on HEK293T-monkey GPC3 cells
[2] = target: monkey GPC3-His protein (monkey); test: ELISA, monkey GPC3-His coated; antibody 0.02 nM
[3] = target: monkey GPC3-His protein (monkey); test: ELISA, monkey GPC3-His coated; antibody 0.11 nM
[4] = target: monkey GPC3-His protein (monkey); test: ELISA, monkey GPC3-His coated; antibody 0.53 nM
[5] = target: monkey GPC3-His protein (monkey); test: ELISA, monkey GPC3-His coated; antibody 2.67 nM
[6] = target: monkey GPC3-His protein (monkey); test: ELISA, monkey GPC3-His coated; antibody 0.004 nM
[7] = target: monkey GPC3-His protein (monkey); test: ELISA, monkey GPC3-His coated; antibody 13.33 nM
[8] = target: monkey GPC3-His protein (monkey); test: ELISA, monkey GPC3-His coated; antibody 66.66 nM
[9] = target: monkey GPC3-His protein (monkey); test: ELISA, monkey GPC3-His coated; antibody 0.0008 nM

| Binder | EC50 [1] [nM] | Max MFI [1] [MFI] | OD450 nm [2] | OD450 nm [3] | OD450 nm [4] | OD450 nm [5] | OD450 nm [6] | OD450 nm [7] | OD450 nm [8] | OD450 nm [9] |
| --- | --- | --- | --- | --- | --- | --- | --- | --- | --- | --- |
| B1 | 1.32 | 29600 | 1.22 | 2.16 | 2.58 | 2.57 | 0.413 | 2.44 | 2.51 | 0.175 |
| B2 | 3.09 | 23200 | 0.475 | 1.37 | 2.12 | 2.17 | 0.16 | 2.34 | 2.23 | 0.15 |
| B3 | 1.58 | 30900 | 0.963 | 1.85 | 2.22 | 2.36 | 0.357 | 2.36 | 2.53 | 0.16 |
| B4 | 3.27 | 24500 | 0.633 | 1.59 | 2.21 | 2.38 | 0.202 | 2.3 | 2.39 | 0.089 |
| B5 | 1.28 | 31300 | 1.17 | 2.1 | 2.5 | 2.4 | 0.432 | 2.4 | 2.53 | 0.165 |
| B6 | 2.17 | 23400 | 0.594 | 0.94 | 1.16 | 1.21 | 0.103 | 1.22 | 1.1 | 0.069 |
| B7 | 71.6 | 2910 | 0.039 | 0.066 | 0.053 | 0.111 | 0.045 | 0.195 | 0.578 | 0.06 |
| B8 | 2.88 | 23400 | 0.649 | 1.13 | 1.28 | 1.24 | 0.222 | 1.15 | 1.2 | 0.164 |
| B9 | 32.8 | 3490 | 0.041 | 0.042 | 0.056 | 0.136 | 0.04 | 0.276 | 0.652 | 0.099 |
| B10 | 3.09 | 22200 | 0.609 | 0.997 | 1.15 | 1.27 | 0.226 | 1.13 | 1.24 | 0.088 |

From patent US20260116991A1
